The target in the test is His-importin 7 (Xenopus laevis) (Xenopus laevis). The test can be described thus: differential scanning fluorimetry; His-tagged NTR at 0.5 μM in TPB with 2 mM DTT, His-NOSIP or Ubc9 titrated in 18 steps from 0.05 to 5 μM, 5x SYPRO Orange, 25 to 90 °C; Tm plotted against concentration, exponential fit. A general note: Differential scanning fluorimetry follows unfolding on heating by fluorescence.

This is an account of results in paper PMC9974451.

The Kd is the constant that tells how readily two partners part at equilibrium. A low value points to a tighter complex.

B1: His-NOSIP (natural protein)
chain: MTRHGKNCTAGAVYTYHEKKKDTAASGYGTQNIRLSRDAVKDFDCCCLSLQPCHDPVVTPDGYLYEREAILEYILHQKKEIARQMKAYEKQRGTRREEQKELQRAASQDHVRGFLEKESAIVSRPLNPFTAKALSGTSPDDVQPGPSVGPPSKDKDKVLPSFWIPSLTPEAKATKLEKPSRTVTCPMSGKPLRMSDLTPVHFTPLDSSVDRVGLITRSERYVCAVTRDSLSNATPCAVLRPSGAVVTLECVEKLIRKDMVDPVTGDKLTDRDIIVLQRGGTGFAGSGVKLQAEKSRPVMQA
As for B1, the Kd was determined as 447 nM.
